As usually defined, the Kd is the free concentration of one partner at which half of the binding sites on the other are occupied at equilibrium, for simple one-to-one binding. A lower Kd goes with higher affinity.

Here are results for 2 substances from patent US7138103.

The target of assay [1] is mono HSG peptide (peptide containing a single HSG substituent and a thiol). In words: BIAcore, mono HSG peptide coupled by its thiol to a CM-5 chip. (In general: SPR reads the build-up and loss of mass on a sensor chip optically.)
Assay [2] concerns the target carcinoembryonic antigen (CEA) (UniProt P06731). In words: analytical size exclusion HPLC, radioiodinated bsAb with 10-20× molar excess of CEA. Background: Size exclusion chromatography separates by hydrodynamic size, large species first.
Assay [3] concerns the target Ac-Lys(DTPA)-Tyr-Lys(DTPA)-Lys(Tscg-Cys)-NH2 (IMP 192). In words: in vivo, GW-39 tumor in nude mice, calculated from biodistribution assuming one peptide per bsAb; 1 h after peptide.
The target is the same in assay [4]. In words: in vivo, GW-39 tumor in nude mice, calculated from biodistribution assuming one peptide per bsAb; 3 h after peptide.
The target is the same in assay [5]. In words: in vivo, GW-39 tumor in nude mice, calculated from biodistribution assuming one peptide per bsAb; 24 h after peptide.
Assay [6] shares this target. The assay can be described thus: in vivo, GW-39 tumor in nude mice, calculated from biodistribution assuming one peptide per bsAb; 30 min after peptide.

Chain of carcinoembryonic antigen (CEA) (P06731 35-685 limits assumed): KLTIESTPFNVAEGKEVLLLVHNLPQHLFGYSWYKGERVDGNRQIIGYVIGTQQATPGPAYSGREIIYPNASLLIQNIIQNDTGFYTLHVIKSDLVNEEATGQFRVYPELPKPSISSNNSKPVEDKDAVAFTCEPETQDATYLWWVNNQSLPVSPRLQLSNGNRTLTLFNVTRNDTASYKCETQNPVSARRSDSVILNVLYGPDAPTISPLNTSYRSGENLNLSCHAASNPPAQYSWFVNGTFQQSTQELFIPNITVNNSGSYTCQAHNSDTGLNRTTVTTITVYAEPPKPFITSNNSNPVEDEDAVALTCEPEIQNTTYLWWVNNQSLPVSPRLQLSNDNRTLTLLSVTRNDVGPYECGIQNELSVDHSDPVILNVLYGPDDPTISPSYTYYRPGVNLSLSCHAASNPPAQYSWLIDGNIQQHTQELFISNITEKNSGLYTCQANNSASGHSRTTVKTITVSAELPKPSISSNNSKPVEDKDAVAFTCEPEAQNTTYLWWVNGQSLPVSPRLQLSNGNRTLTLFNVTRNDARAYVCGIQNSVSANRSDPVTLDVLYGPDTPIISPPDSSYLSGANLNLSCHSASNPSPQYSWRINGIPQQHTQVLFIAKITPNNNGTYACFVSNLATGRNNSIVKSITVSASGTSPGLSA

Substance “hMN-14 × m679 F(ab′)2 bsMAb (bispecific antibody)” showed a Kd in assay [1] of 1.5 nM.

With “hMN-14 × 734 (Fab × Fab) bsAb (bispecific antibody)”, in assay [2], the percent of bsAb bound worked out at 90%. The % saturation on hMN-14 × 734 (available DTPA binding sites on the tumor bound bsAb filled with 99m-Tc-IMP-192) in assay [3] is 25.8%; in assay [4], 25%; in assay [5], 28%; in assay [6], 25.4%.
